We go through two substances from paper doi:10.1101/2025.11.15.688623.

In test [1] the target is AccE5 (ε-subunit) (Mycobacterium smegmatis (endogenous in M. smegmatis)). The experiment in a line: cryo-EM structure.
Test [2] concerns the target AccA3 (biotin carboxylase subunit with C-terminal BCCP domain) (Mycobacterium smegmatis (endogenous in M. smegmatis)). Put plainly: cryo-EM structure.

Take AccE5 (ε-subunit) (natural protein): the stoichiometry N in test [1] was determined as 2.

The substance “AccA3 (biotin carboxylase subunit with C-terminal BCCP domain) (enzyme)” registered a stoichiometry N in test [2] of 4.

The term stoichiometry N denotes a count of units in the complex or per binding partner.
